Reference: PMC5159557 (Nucleic Acids Research, 2016)

T1: Cas5 subunit of Escherichia coli type I-E Cascade (Escherichia coli, UniProt Q46898 1-224)
T1 sequence: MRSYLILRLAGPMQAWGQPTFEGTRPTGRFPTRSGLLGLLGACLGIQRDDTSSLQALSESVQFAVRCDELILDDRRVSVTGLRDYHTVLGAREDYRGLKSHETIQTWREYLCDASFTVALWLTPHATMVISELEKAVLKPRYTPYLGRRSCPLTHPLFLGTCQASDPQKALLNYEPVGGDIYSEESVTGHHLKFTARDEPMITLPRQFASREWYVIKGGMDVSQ

T2: Cas6e subunit of Escherichia coli type I-E Cascade (Escherichia coli, UniProt Q46897 1-199)
T2 sequence: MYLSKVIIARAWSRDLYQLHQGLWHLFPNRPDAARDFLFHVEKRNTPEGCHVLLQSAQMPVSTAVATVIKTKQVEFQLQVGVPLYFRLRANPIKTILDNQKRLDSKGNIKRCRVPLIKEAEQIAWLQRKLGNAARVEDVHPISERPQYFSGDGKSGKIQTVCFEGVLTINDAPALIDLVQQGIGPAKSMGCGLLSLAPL

B1: Cse2 subunit of Escherichia coli type I-E Cascade, N-terminally fused to Strep-Tag II (natural protein)
chain: MADEIDAMALYRAWQQLDNGSCAQIRRVSEPDELRDIPAFYRLVQPFGWENPRHQQALLRMVFCLSAGKNVIRHQDKKSEQTTGISLGRALANSGRINERRIFQLIRADRTADMVQLRRLLTHAEPVLDWPLMARMLTWWGKRERQQLLEDFVLTTNKNA

Legend:
Assay in all cases: native MS
[1] = molecular target: Cas7 subunit of Escherichia coli type I-E Cascade (Escherichia coli)
[2] = molecular target: T1, Cas5 subunit of Escherichia coli type …
[3] = molecular target: T2, Cas6e subunit of Escherichia coli type …

Row | Molecule | stoichiometry N [1] | binding result [2] | binding result [3]
1 | Cas7 subunit of Escherichia coli type I-E Cascade (natural protein) | 6 |  | 
2 | B1 |  | binds | binds
